# Measurements as given in the nanobody polyreactivity screen of Harvey et al. (2022).
# Assay: yeast display, Sf9 membrane polyspecificity reagent, FACS + sequencing; frameworks hold sequencing errors
# Method in brief: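 Galactose induction of a Saccharomyces cerevisiae BJ5465 synthetic nanobody display library ran 36–48 hours. The cells were then stained for 1 hour at 4 °C with 10% biotinylated, detergent-solubilized Sf9 membrane reagent, pulled down on streptavidin microbeads and FACS-sorted into low and high (top ~1%) gates on expression and reagent-binding fluorescence. Labels for polyreactivity follow the gate of origin.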
row,Sequence,polyreactivity (PSR sort gate)
1,QVQLVESGGGLVQAGGSLRLSCAASGSIFDSNAMGWYRQAPGKERELVASITSDGDTYYADSVKGRFTISRDNAKNTVYLQMNSLKPEVTAVYYCAAYVPYSGLDYWGQGTQVTVSS,low polyreactivity
2,QVQLVESGGGLVQAGGSLRLSCAASGSIFDSYAMGWYRQAPGKERELVAGIRWDSGSTYYADSVKGRFTISRDNAKNTVYLQINSLKPEDTAVYYCAADLFDFLLIDGFAVVTYGYWGQGTQVTVSS,low polyreactivity
3,QVQLVESGGGLVQAGGSLRLSCAASGSIFDSYAMGWYRQAPGKEWELVAAISGNSDSTYYADSVKGRFTISRDNAKNTVYLQMNSLKPEDTAVYYCAKEGGNGYDYWGQGTQVTVSS,low polyreactivity
4,QVQLVESGGGLVQAGGSLRLSCAASGSIFDTYVMGWYRQAPGKERELVAVISYSGTRTSYADSVKGRFTISRDNAKNTVYLQMNSLKPEDTAVYYCAARVTYYRTYRGRQYGYWGQGTQVTVSS,high polyreactivity
5,QVQLVESGGGLVQAGGSLRLSCAASGSIFDVNAMGWYIQAPGKERELVAAISQRGTRTYYADSVKGRFTISRDNAKNTVYLQMNRLKPEDTAVYYCNRGGWRQYDSWGQGTQVTVSS,high polyreactivity
6,QVQLVESGGGLVQAGGSLRLSCAASGSIFDVNAMGWYRQAPGKEREMVAAISDSGGSTYYADSVKGRFTISRDNAKNTVYLQMNSLKPEDTAVYYCNAVWSWYNYYDFDYWGQGSQVTVSS,low polyreactivity
7,QVQLVESGGGLVQAGGSLRLSCAASGSIFDVNTMGWYRQAPGKERELVAAITNGYRTNYADSVKGRFTISRDNAKNTVYLQMNILKPEDTSVYYCNTDQGTTSDYCFWGQGTQVTVSS,low polyreactivity
8,QVQLVESGGGLVQAGGSLRLSCAASGSIFDVYAMGWSRQAAGTERELVAAIDSGGSSTYYADSVKGRFTISRDNAKNSVYLQMNSLKPEDTAVYYCAARPYYSWNYDYWGQGTQVTVSS,low polyreactivity
9,QVQLVESGGGLVQAGGSLRLSCAASGSIFDYKAMGWYRQAPGKERELFADITISDDSTYYADSVKGRFTISRDNAKNTVYLQMNSLKPEDTAVYYCAADIKYYWYYYYWAYAYDYWGHGTQVTVSS,high polyreactivity
10,QVQLVESGGGLVQAGGSLRLSCAASGSIFDYNAMGWYRQAPGKERELVAAISSGGSTYYADSVKGRFTISRDNAKNTVYLQMNSLKPEDTEVYYCAVKVWLVIQFDYWGQGTPVTVSS,low polyreactivity
11,QVQLVESGGGLVQAGGSLRLSCAASGSIFDYNAMGWYRQAPGKERELVAAISVSGGSTYYADSVKGRFTISRDNAKNTVYLQMNSLKPEDTAVYYCAAETWTYGWSYDYWGQGTQVTVSS,high polyreactivity
12,QVQLVESGGGLVQAGGSLRLSCAASGSIFDYNAMGWYRQAPGKERELVAAITSTDSTYADSVKGRFTISRDNAKNTVYLQMNSLKPEDTAVYYCAAEDVIYYLTGQWREYDYWGQGTQVTVSS,low polyreactivity
13,QVQLVESGGGLVQAGGSLRLSCAASGSIFDYNPMGWYTQAPGKERELVADITSGGSTYYADSVKGRFTISRDNAKNTVYLQMNSLKPEDTAVYYCNADDAVEYSYGGGTEFYYWGQGTQVSVSS,low polyreactivity
14,QVQLVESGGGLVQAGGSLRLSCAASGSIFDYNTMGWYRQAPGKERELVAAISSGGSTYYADSVKGRFTISRDNAKNTVYLQMNSLKPEDTAVYYCAARRAGWWGFYYWGQGTQVTVSS,high polyreactivity
15,QVQLVESGGGLVQAGGSLRLSCAASGSIFDYNTMGWYSQAPGKERELVAAISSGGSTYYADSVKGRFTISRDNAKTTVYLQMKSLKPEDTAVYYCAARRAGWWGFYYWGQGTQVTVSS,high polyreactivity
16,QVQLVESGGGLVQAGGSLRLSCAASGSIFDYNVMGWSRQAPGKERELVAAITYNDGSTYYGDSVKGRFTISRDYAKNTVYLQMNSLKPEDTAVYYCNAEQTPSGLYDYRGVEGEMGYWGQGTQVTVSS,low polyreactivity
17,QVQLVESGGGLVQAGGSLRLSCAASGSIFDYYAMGWYRQAPGKERELVAAIDSGDITYYADSVKGRFTISRDNAKNTFYLQMNRLKPEDTAVYYCAAEGTGYSVGWQYGYWGQGTQVSVSS,low polyreactivity
18,QVQLVESGGGLVQAGGSLRLSCAASGSIFDYYAMGWYRQAPGKERELVATISGGGGTTYYADSVKGRFTISRDTAKNTVYLQMNSLKPEDTAVYYCAADSLGYNYWGQGTQVTVSS,low polyreactivity
19,QVQLVESGGGLVQAGGSLRLSCAASGSIFDYYAMGWYRQAPGKERELVATISWIGDRTYYADSVKGRFTISRDNAKNTVYLQMNSLKPEDTAVYYCATDYYEDWRGYVDYWYRPYDYWGHGTQVTVSS,high polyreactivity
20,QVQLVESGGGLVQAGGSLRLSCAASGSIFDYYTMGWYRQAPGKERELVATIRSGDSTNYADSVKGRFTISRDNAKNPVYVQMNSLKPEDTAVYYCAADDGAYPTLYDYWGQGTQVTVSS,low polyreactivity
21,QVQLVESGGGLVQAGGSLRLSCAASGSIFEDYAMGWYRQAPGKERELDAAIDWGDGDTYYADSVKGRFTISRDNAKNSVYLQMNSLKPEDTAVYYCAADLVGYSGDYFDEEYYWGQGTQVTVSS,high polyreactivity
22,QVQLVESGGGLVQAGGSLRLSCAASGSIFEDYTRGWYRQAPGKERELVAAIDWSDASTFYADSVKGRFTISRDNAKNTVYLQMSLNPEDTAVYYCNVAIIFYDDDYWGQGTQVTVSS,high polyreactivity

row,Sequence,polyreactivity (PSR sort gate)
1,QVQLVESGGGLVQAGGSLRLSCAASGSIFEEYAMGWYRQAPGKERELVARIDESGGSTYYADSVKGRFTISRDNAKNTVYLQMNSLKPEDTAVYYCAAERYSDSWGFYSVDEGSWEMDYWGQGTQVTVSS,low polyreactivity
2,QVQLVESGGGLVQAGGSLRLSCAASGSIFEFNTMGWYRQAPGKERELVAAISSADTTNYADSVKGRFTISRDNAKNTVYLQMNSLKPEDTAVYYCNKELHLSATLRVLGFDYWGQGTQVTVSS,low polyreactivity
3,QVQLVESGGGLVQAGGSLRLSCAASGSIFEGNAMGWYRQAPGKERELVAAISTTGGITYYADSVKGRFTISRDKAKNTVYLQMNSLKPEDTAVYYCAADPSQPRIDSSNYDYWGQGTQVTVSS,low polyreactivity
4,QVQLVESGGGLVQAGGSLRLSCAASGSIFEIYAMGWYRQAPGKERELVAAISWSGGRTYYADSVKGRFTISRDNAKNTVYLQMNSLKPEDTAVYYCNAGQWRYPGLYYYWGQGTEVTVSS,high polyreactivity
5,QVQLVESGGGLVQAGGSLRLSCAASGSIFEIYDMGWYRQAPGKERELVASIRTSGGSTYYADSVKGRFTISRDNAKNTVYLQMNSLKPEDTAVYYCATGWSWYHPDYDYWGQGTQVTVSS,low polyreactivity
6,QVQLVESGGGLVQAGGSLRLSCAASGSIFENNAMGWYRQAPGKERELVAAISSDDTTNYADSVKGRFTISRDNAKNTVYLQMNSLKPEDTAVYYCATDYDVYGYPYDYGYWGQGTQVTVSS,low polyreactivity
7,QVQLVESGGGLVQAGGSLRLSCAASGSIFENNAMGWYRQAPGKERELVAAISSDDTTNYADSVKGRFTISRDNAKNTVYLQMNSLKPEDTAVYYCATDYYVYGYPYDYGYWGQGTQVTVSS,low polyreactivity
8,QVQLVESGGGLVQAGGSLRLSCAASGSIFENNVMGWYRQAPGKERELVAVISWNGGRTYYADSVKGRFTISRDNAKNTVYLQMNSLKPEDTAVYYCNAQGYFWSESIEYDYWGQGTQVTVSS,low polyreactivity
9,QVQLVESGGGLVQAGGSLRLSCAASGSIFEPNAMGRYRQAPGKEREFVAAISGSGGSTYYADSVKGRFTISRDNAKNTVYLQMNSLKPEDTAVYYCATRGKRSYFRTFYYWGEGTQVTVSS,high polyreactivity
10,QVQLVESGGGLVQAGGSLRLSCAASGSIFEPYAMGWYRQAPGKERELVAAIRVSGGSTYYADSVKGRFTISRDNAKNTVYLQMNSLKPEDTAVYYCAADWWSRYYYWGQGTQVTVSS,high polyreactivity
11,QVQLVESGGGLVQAGGSLRLSCAASGSIFEPYTMGWYRQAPGKERELVAAITGSGGSTFYADSVKGRFTISRDNAKNTVYLQMNSLKPEDTAVDYCNAYAYPYTDVDYWGQGTQVTVSS,low polyreactivity
12,QVQLVESGGGLVQAGGSLRLSCAASGSIFEPYVMGWYRQAPGKERELVAAIRQTGGSTYYADSVKGRFTISRDNAKNTVYLQMNSLKPEDTAVYYCNAEQNPSGLYDYRGVEGEMGYWGQGTQVTVSS,low polyreactivity
13,QVQLVESGGGLVQAGGSLRLSCAASGSIFEQYTMGWYRQAPGKERELVAAISRRSGRTYYADSVKGRFTISRDNAKNTVYLQMNRLKPEDTAVYYCNTVYYGNFYSTRYDYWGQGTQVTVSS,high polyreactivity
14,QVQLVESGGGLVQAGGSLRLSCAASGSIFERNAMGWYRQAPGKERELVAGISSSGRTNYADSVKGRFTISRDNAKNTVYLQMNSLKPEDTAVYYCSADTYLYWEYDYWGQGTQVTVSS,low polyreactivity
15,QVQLVESGGGLVQAGGSLRLSCAASGSIFERYAMGWYRQSPGKEREFVATITSGGGRTYYADSVKGRFTISRENAKNTVYLQMNSLKPEDTAVYYCGAASYRRQPFNYWGQGTQVTVSS,high polyreactivity
16,QVQLVESGGGLVQAGGSLRLSCAASGSIFERYSMGWYRQATGKERELFATISKSGDSKYYADSVKGRFTISRDNAKNTVYFQMNRLKPEDTAVYYCSADGWYETSDATFYYWGQGTQVNVSS,low polyreactivity
17,QVQLVESGGGLVQAGGSLRLSCAASGSIFESNAMGWYRQAPGKERELVAAYADSVKGRFTISRDNAKNTVYLQMNSLKPEDTAVYYCAKSLSLYVVPLYEYWGQGTQVTVSS,low polyreactivity
18,QVQLVESGGGLVQAGGSLRLSCAASGSIFESYVMGWYRQAPGKERELVAAISYTGDDTYYADSVKGRFTISRDNAKNTVYLQMNSLKPEDTAVYYCNADNYYYYPWYVRALDSWGQGTQVTVSS,low polyreactivity
19,QVQLVESGGGLVQAGGSLRLSCAASGSIFEVYAMGWYRQAPGKEREFVATISGSGGSTYYADSVKGRFTISRDNAKNTVYLQMNSLKPEDTAVYYCAASIAWYSSFVITYYYWGQGTQVTVSS,low polyreactivity
20,QVQLVESGGGLVQAGGSLRLSCAASGSIFEWYAMGWYRQAPGKERELVATITGSGGSTYYADSVKGRFTISRDNAKNTVYLQMNSLKPEDTAVYYCAAVPPPGGLDYWGQGTQVTVSS,high polyreactivity
21,QVQLVESGGGLVQAGGSLRLSCAASGSIFEYYAMGWYRQAPGKERELVAAITWSGGSTYYADSVKGRFTISRDNAKNTVYLQMNSLKPEDTAVYYCAKGYYVYGIFHRFGYYWGQGTQVTVSS,high polyreactivity
